{"source": "IntAct's records for PubMed 16469698", "biological_target": "mfd_ecoli mfd (UniProt P30958)"}
{"substance": "DNA-directed RNA polymerase subunit beta (Escherichia coli (strain K12)) (from UniProt P0A8V2) E119A", "values": [{"measurement": "effect of a mutation on the interaction", "value": "decreasing interaction"}]}
